Data reported in patent US6653444 (Dana-Farber, dated 2003).

Biological target: CD28 (human, UniProt P10747 19-220)
Assay: cell-based or functional assay

Chain of CD28 (P10747 19-220): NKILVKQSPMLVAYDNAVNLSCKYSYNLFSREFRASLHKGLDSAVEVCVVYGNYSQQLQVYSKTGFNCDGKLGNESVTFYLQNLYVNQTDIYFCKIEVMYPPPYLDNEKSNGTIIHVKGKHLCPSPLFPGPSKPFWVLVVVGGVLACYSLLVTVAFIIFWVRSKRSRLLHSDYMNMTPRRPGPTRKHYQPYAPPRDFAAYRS

B1: murine B7 (ligand)
chain: VDEQLSKSVKDKVLLPCRYNSPHEDESEDRIYWQKHDKVVLSVIAGKLKVWPEYKNRTLYDNTTYSLIILGLVLSDRGTYSCVVQKKERGTYGVKHLALVKLSIKADFSTPNITESGNPSADTKRITCFASGGFPKPRFSWLENGRELPGINTTISQDPESELYTISSQLDFNTTRNHTIKCLIKYGDAHVSEDFTWEKPPEDPPDSKNTLVLFGAGFGAVITVVVIVVIIKCFCKHRSCFRRNEASRETNNSLTFGPEEALAEQTVFL
fold enhancement of proliferation of PMA-treated human CD28+ T cells by fixed COS-mB7 cells: 29 fold

B2: human B7 B cell activation antigen (ligand)
chain: VIHVTKEVKEVATLSCGHNVSVEELAQTRIYWQKEKKMVLTMMSGDMNIWPEYKNRTIFDITNNLSIVILALRPSDEGTYECVVLKYEKDAFKREHLAEVTLSVKADFPTPSISDFEIPTSNIRRIICSTSGGFPEPHLSWLENGEELNAINTTVSQDPETELYAVSSKLDFNMTTNHSFMCLIKYGHLRVNQTFNWNTTKQEHFPDNLLPSWAITLISVNGIFVICCLTYCFAPRCRERRRNERLRRESVRPV
IL-2 secretion with CHO-B7 relative to anti-CD28 mAb, PMA-stimulated CD28+ T cells: ~45% | fold enhancement of proliferation of PMA-treated human CD28+ T cells by fixed COS-hB7 cells: 30 fold | fold increase in proliferation of PMA-treated human CD28+ T cells by fixed CHO-hB7 cells: 51 fold | proliferation by CHO-B7 relative to anti-CD28 mAb: ~28 % less
